Drawing on patent US20220033501A1, this text covers OD450, Mean fluorescence intensity and Inhibition ratio (%) for one substance.

In assay [1] the target is monkey TIM-3 extracellular domain protein with hFc tag (cTIM-3-hFc) (monkey). Description: ELISA, coated monkey TIM-3 ECD protein, 0.0001 nM antibody. A general note: ELISA stands for enzyme-linked immunosorbent assay.
Assay [2] addresses monkey TIM-3 on CHOK1 stable cell line (CHOK1-cTIM-3) (monkey). Description: FACS, CHOK1-cTIM-3 cells, 40 nM antibody.
Assay [3] deals with murine TIM-3 extracellular domain protein with hFc tag (mTIM-3-hFc) (mouse) (UniProt Q8VIM0). Kind of assay: ELISA, coated mouse TIM-3 ECD protein, 66.667 nM antibody.
Sequence of murine TIM-3 extracellular domain protein with hFc tag (mTIM-3-hFc) (mouse) (Q8VIM0 other isoform, or with tags, fused parts or gaps): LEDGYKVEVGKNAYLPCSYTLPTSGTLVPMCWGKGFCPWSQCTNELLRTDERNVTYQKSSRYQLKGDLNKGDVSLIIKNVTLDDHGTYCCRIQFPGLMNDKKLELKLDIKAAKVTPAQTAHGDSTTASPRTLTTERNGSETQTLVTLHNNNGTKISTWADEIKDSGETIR
For assay [4], the target named is monkey TIM-3 on CHOK1 stable cell line (CHOK1-cTIM-3) (monkey). Description: FACS, CHOK1-cTIM-3 cells, 0 nM antibody. A general note: A flow cytometer gives signals particle by particle.
Sequence of monkey TIM-3 on CHOK1 stable cell line (CHOK1-cTIM-3) (monkey) (chain, as listed by the source limits assumed): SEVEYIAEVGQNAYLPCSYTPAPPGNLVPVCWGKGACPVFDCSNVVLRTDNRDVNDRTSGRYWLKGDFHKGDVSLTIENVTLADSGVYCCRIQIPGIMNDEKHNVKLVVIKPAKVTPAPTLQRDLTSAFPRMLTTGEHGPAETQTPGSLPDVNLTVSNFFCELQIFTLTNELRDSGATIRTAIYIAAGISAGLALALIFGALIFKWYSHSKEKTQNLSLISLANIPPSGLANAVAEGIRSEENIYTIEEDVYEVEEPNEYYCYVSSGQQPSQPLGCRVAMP
Assay [5] addresses monkey TIM-3 extracellular domain protein with hFc tag (cTIM-3-hFc) (monkey). Kind of assay: ELISA, coated monkey TIM-3 ECD protein, 0.0667 nM antibody.
In assay [6] the target is human TIM-3 extracellular domain protein with hFc tag (hTIM-3-hFc) (human) (UniProt Q8TDQ0). Description: FACS, blocking of hTIM-3-hFc binding to phosphatidylserine on apoptotic Jurkat cells, 0 nM antibody.
Sequence of human TIM-3 extracellular domain protein with hFc tag (hTIM-3-hFc) (human) (Q8TDQ0 22-200): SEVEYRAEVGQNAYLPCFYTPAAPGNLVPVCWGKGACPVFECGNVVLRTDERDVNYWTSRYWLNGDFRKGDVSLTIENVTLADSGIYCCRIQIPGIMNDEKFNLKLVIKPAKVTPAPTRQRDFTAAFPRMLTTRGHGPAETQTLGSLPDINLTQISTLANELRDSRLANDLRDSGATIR
Assay [7] has as its target monkey TIM-3 extracellular domain protein with hFc tag (cTIM-3-hFc) (monkey). Kind of assay: ELISA, coated monkey TIM-3 ECD protein, 0 nM antibody.
In assay [8] the target is human TIM-3 extracellular domain protein with hFc tag (hTIM-3-hFc) (human) (UniProt Q8TDQ0). Description: ELISA, coated human TIM-3 ECD protein, 0.0007 nM antibody.
The target in assay [9] is monkey TIM-3 extracellular domain protein with hFc tag (cTIM-3-hFc) (monkey). Kind of assay: ELISA, coated monkey TIM-3 ECD protein, 0.0067 nM antibody.
Assay [10] deals with monkey TIM-3 on CHOK1 stable cell line (CHOK1-cTIM-3) (monkey). Kind of assay: FACS, CHOK1-cTIM-3 cells, 0.32 nM antibody.
For assay [11], the target named is human TIM-3 on CHOK1 stable cell line (CHOK1-hTIM-3) (human) (UniProt Q8TDQ0). Description: FACS, CHOK1-hTIM-3 cells, 0.32 nM antibody.
Sequence of human TIM-3 on CHOK1 stable cell line (CHOK1-hTIM-3) (human) (Q8TDQ0 22-301 limits assumed): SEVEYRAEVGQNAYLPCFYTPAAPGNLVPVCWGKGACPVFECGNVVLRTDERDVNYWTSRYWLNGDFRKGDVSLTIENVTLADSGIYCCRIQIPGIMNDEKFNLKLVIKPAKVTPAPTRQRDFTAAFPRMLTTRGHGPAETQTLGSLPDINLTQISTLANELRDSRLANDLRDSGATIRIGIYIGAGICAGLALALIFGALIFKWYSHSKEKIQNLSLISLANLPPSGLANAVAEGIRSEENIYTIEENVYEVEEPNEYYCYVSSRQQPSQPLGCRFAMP
For assay [12], the target named is human TIM-3 extracellular domain protein with hFc tag (hTIM-3-hFc) (human) (UniProt Q8TDQ0). Description: FACS, blocking of hTIM-3-hFc binding to phosphatidylserine on apoptotic Jurkat cells, 0.274 nM antibody.
Assay [13] deals with human TIM-3 on CHOK1 stable cell line (CHOK1-hTIM-3) (human) (UniProt Q8TDQ0). Description: FACS, CHOK1-hTIM-3 cells, 40 nM antibody.
The target of assay [14] is human TIM-3 extracellular domain protein with hFc tag (hTIM-3-hFc) (human) (UniProt Q8TDQ0). Kind of assay: ELISA, coated human TIM-3 ECD protein, 0 nM antibody.
The target is the same in assay [15]. Kind of assay: FACS, blocking of hTIM-3-hFc binding to phosphatidylserine on apoptotic Jurkat cells, 0.823 nM antibody.
In assay [16] the target is monkey TIM-3 on CHOK1 stable cell line (CHOK1-cTIM-3) (monkey). Description: FACS, CHOK1-cTIM-3 cells, 1.6 nM antibody.
The target in assay [17] is monkey TIM-3 extracellular domain protein with hFc tag (cTIM-3-hFc) (monkey). Description: ELISA, coated monkey TIM-3 ECD protein, 6.6667 nM antibody.
In assay [18] the target is murine TIM-3 extracellular domain protein with hFc tag (mTIM-3-hFc) (mouse) (UniProt Q8VIM0). Description: ELISA, coated mouse TIM-3 ECD protein, 0.0067 nM antibody.

Sequence of monkey TIM-3 extracellular domain protein with hFc tag (cTIM-3-hFc) (monkey) (chain, as listed by the source): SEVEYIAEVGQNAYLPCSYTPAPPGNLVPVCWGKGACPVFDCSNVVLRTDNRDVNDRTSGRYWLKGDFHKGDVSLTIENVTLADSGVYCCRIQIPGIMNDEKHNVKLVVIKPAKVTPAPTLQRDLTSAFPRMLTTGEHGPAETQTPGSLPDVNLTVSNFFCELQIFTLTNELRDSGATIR

human IgG control (antibody): the OD450 amounted to 0.13 in assay [1]; 0.73 in [3]; 0.13 in assay [5]; 0.13 in assay [7]; 0.07 in [8]; 0.13 in [9]. In addition, the OD450 in [14] came to 0.07; in [17], 0.18; in assay [18], 0.21. Further, the Mean fluorescence intensity was 6 in assay [2]; 2.9 in assay [4]; 3.1 in assay [10]; 2.9 in [11]; 5 in assay [13]; 3.2 in [16]. Further, the Inhibition ratio (%) in [6] was -2.5%; in assay [12], -20%; in [15] it was 2.8%.
